The target of experiment [1] is HLA-A2.1 molecules expressed by 174CEM.T2 cells (human). The experiment can be described thus: T2 HLA-A2.1 stabilisation, flow cytometry (BB7.2), peptide 200 ug/ml. On the technique in general: In flow cytometry, cells or beads pass a laser one at a time.
The target of experiment [2] is HLA-A1 molecules isolated from the EBV transformed cell line Steinlin (human). The experiment is described as follows: competition with radiolabeled probe [..], purified HLA-A1; IC50 standard / IC50 peptide.
The target of experiment [3] is T1, HLA-A3.2 molecules isolated from the EBV transformed cell line GM3107 (human). The experiment is described as follows: competition with radiolabeled probe [..], purified HLA-A3.2; IC50 standard / IC50 peptide.
The target in experiment [4] is HLA-A24 molecules isolated from the EBV transformed cell line KT3 (human). The experiment can be described thus: competition with radiolabeled probe [..], purified HLA-A24; IC50 standard / IC50 peptide.
Experiment [5] addresses HLA-A11.2 molecules isolated from the cell line BVR (human). The experiment is described as follows: competition with radiolabeled probe [..], purified HLA-A11.2; IC50 standard / IC50 peptide.
For experiment [6], the target named is T1, HLA-A3.2 molecules isolated from the ….
The mark [7] stands for this setting: remark: other sources report otherwise.

Like-named read-outs stand apart in the source and are kept apart here.

In experiment [1], MLDLQPETT (modifications not checked) [… (residues 12-20 of HPV16 protein E7)] came in with an FI (Fluorescence Index) of 2.3 and an MF (mean fluorescence) of 218.

In experiment [1] (setting [7]), CVYCKQQLL (modifications not checked) [… (residues 37-45 of HPV16 protein E6)] displayed an FI (Fluorescence Index) of 2 and an MF (mean fluorescence) of 195.

As to FQQLFLNTL (modifications not checked) [… (residues 86-94 of HPV18 protein E7)], in experiment [1], the FI (Fluorescence Index) was 0.8 and the MF (mean fluorescence) amounted to 244.

Turning to KTVLELTEV (modifications not checked) [… (residues 36-44 of HPV18 protein E6)], in experiment [1], the FI (Fluorescence Index) is 2.3 and the MF (mean fluorescence) is 468.

As to EIDGPAGQA (modifications not checked) [… (residues 37-45 of HPV16 protein E7)], in experiment [2], the binding ratio to standard came to 0.025.

HLDKKQRFH (modifications not checked) [… (residues 125-133 of HPV16 protein E6)]: the binding ratio to standard in experiment [3] (setting [7]) was 0.44.

For QLFLNTLSF (modifications not checked) [… (residues 88-96 of HPV18 protein E7)], in experiment [1], the FI (Fluorescence Index) came to 0.8 and the MF (mean fluorescence) was determined as 258.

In experiment [1], KISEYRHYC (modifications not checked) [… (residues 79-87 of HPV16 protein E6)] returned an FI (Fluorescence Index) of 2.2 and an MF (mean fluorescence) of 212.

Take DTLEKLTNT (modifications not checked) [… (residues 88-96 of HPV18 protein E6)]: in experiment [1], the FI (Fluorescence Index) came out at 0.7 and the MF (mean fluorescence) was 238.

Regarding TIHDIILEC (modifications not checked) [… (residues 29-37 of HPV16 protein E6)], in experiment [1], the FI (Fluorescence Index) came to 1.8 and the MF (mean fluorescence) was 184.

Consider EITCVYCKT (modifications not checked) [… (residues 29-37 of HPV18 protein E6)], for which, in experiment [1] (setting [7]), the FI (Fluorescence Index) was determined as 0.5 and the MF (mean fluorescence) was found to be 206.

In experiment [1], FAFKDLFVV (modifications not checked) [… (residues 47-55 of HPV18 protein E6)] had an FI (Fluorescence Index) of 2.3 and an MF (mean fluorescence) of 463.

In experiment [1] (setting [7]), KLPDLCTEL (modifications not checked) [… (residues 13-21 of HPV18 protein E6)] yielded an FI (Fluorescence Index) of 2.1 and an MF (mean fluorescence) of 439.

In experiment [1], LTNTGLYNL (modifications not checked) [… (residues 93-101 of HPV18 protein E6)] yielded an FI (Fluorescence Index) of 1.5 and an MF (mean fluorescence) of 352.

For VYDFAFRDL (modifications not checked) [… (residues 49-57 of HPV16 protein E6)], the binding ratio to standard in experiment [4] was 0.061.

In experiment [1], LSFVCPWCA (modifications not checked) [… (residues 94-102 of HPV18 protein E7)] gave an FI (Fluorescence Index) of 0.9 and an MF (mean fluorescence) of 262.

In experiment [1], IHDIILECV (modifications not checked) [… (residues 30-38 of HPV16 protein E6)] yielded an FI (Fluorescence Index) of 1.3 and an MF (mean fluorescence) of 151.

On to AMFQDPQER (modifications not checked) [… (residues 7-15 of HPV16 protein E6)], for which the results for the binding ratio to standard in experiment [3] (setting [7]) and in experiment [5] (setting [7]) were 0.1 and 0.84, respectively.

As to QLCTELQTT (modifications not checked) [… (residues 21-29 of HPV16 protein E6)], in experiment [1] (setting [7]), the FI (Fluorescence Index) came out at 2.2 and the MF (mean fluorescence) turned out to be 212.

For GTLGIVCPI (modifications not checked) [… (residues 85-93 of HPV16 protein E7)], in experiment [1], the FI (Fluorescence Index) came out at 2.3 and the MF (mean fluorescence) was 216.

On to QQLLRREVY (modifications not checked) [… (residues 42-50 of HPV16 protein E6)], for which the binding ratio to standard came to 0.0058 in experiment [3] and 0.0084 in experiment [5].

Consider TTLEQQYNK (modifications not checked) [… (residues 93-101 of HPV16 protein E6)], for which the binding ratio to standard in experiment [3] stood at 0.078.

As a reminder, the IC50 is the concentration that inhibits the measured activity by half. Turning to KVFPYALINK (modifications not checked) [probe peptide … for A3.2], in experiment [6], the IC50 was found to be 30 nM. That is a double-digit nanomolar value.

In experiment [1], LCTELQTTI (modifications not checked) [… (residues 22-30 of HPV16 protein E6)] gave an FI (Fluorescence Index) of 0.7 and an MF (mean fluorescence) of 114.

As for YMLDLQPET (modifications not checked) [… (residues 11-19 of HPV16 protein E7)], in experiment [1], the FI (Fluorescence Index) is 3.3 and the MF (mean fluorescence) is 284.

As for IVYRDGNPY (modifications not checked) [… (residues 59-67 of HPV16 protein E6)], the binding ratio to standard in experiment [3] (setting [7]) turned out to be 3; in experiment [5] (setting [7]), 0.47.

Regarding PLCDLLIRC (modifications not checked) [… (residues 102-110 of HPV16 protein E6)], in experiment [1], the FI (Fluorescence Index) was determined as 2.1 and the MF (mean fluorescence) was 205.

For RAHYNIVTF (modifications not checked) [… (residues 49-57 of HPV16 protein E7)], in experiment [4], the binding ratio to standard was found to be 0.067.

On to LLRREVYDF (modifications not checked) [… (residues 44-52 of HPV16 protein E6)], for which, in experiment [4], the binding ratio to standard came to 0.0023.

Take HVDIRTLED (modifications not checked) [… (residues 73-81 of HPV16 protein E7)]: the binding ratio to standard in experiment [2] is 0.014.

Turning to LFLNTLSFV (modifications not checked) [… (residues 89-97 of HPV18 protein E7)], in experiment [1], the FI (Fluorescence Index) turned out to be 1.6 and the MF (mean fluorescence) was determined as 360.

With SLYGTTLEQ (modifications not checked) [… (residues 89-97 of HPV16 protein E6)], the binding ratio to standard in experiment [3] was 0.008.

Turning to MHQKRTAMF (modifications not checked) [… (residues 1-9 of HPV16 protein E6)], the binding ratio to standard in experiment [4] turned out to be 0.0049.

Turning to KFYSKISEY (modifications not checked) [… (residues 75-83 of HPV16 protein E6)], the binding ratio to standard in experiment [6] (setting [7]) turned out to be 0.01.

In the case of TLEDLLMGT (modifications not checked) [… (residues 78-86 of HPV16 protein E7)], in experiment [1], the FI (Fluorescence Index) amounted to 1.8 and the MF (mean fluorescence) is 183.

Take YRDGNPYAV (modifications not checked) [… (residues 61-69 of HPV16 protein E6)]: in experiment [2], the binding ratio to standard was determined as 0.008.

RLCVQSTHV (modifications not checked) [… (residues 66-74 of HPV16 protein E7)]: in experiment [1], the FI (Fluorescence Index) is 2.8 and the MF (mean fluorescence) came to 250.

As for RFHNIRGRW (modifications not checked) [… (residues 131-139 of HPV16 protein E6)], the binding ratio to standard in experiment [4] was determined as 0.1.

As to SLQDIEITC (modifications not checked) [… (residues 24-32 of HPV18 protein E6)], in experiment [1], the FI (Fluorescence Index) was determined as 0.7 and the MF (mean fluorescence) stood at 244.

For ELTEVFEFA (modifications not checked) [… (residues 40-48 of HPV18 protein E6)], in experiment [1] (setting [7]), the FI (Fluorescence Index) amounted to 1.1 and the MF (mean fluorescence) was 289.
